# Data published in article PMC9632566 (Nature Communications, 2022).
# B1: DA05A30 (antibody, V domains shown)
# VH: EVQLVESGAEVKKPGESLKISCQGSGYRFSSHWIVWVRQMPGKGLEWMGIIYPGDSDTRYSPSFQGQVTISTDKSNAYLQWSSLKASDTGMYYCARHPQPYGSGYYGEFDYWGQGTLVTVSS
# VL: DIQMTQPPSVSGAPGQRVTISCTGSSSNIGAGYDVYWYQQFPGTAPKLLIYANDNRPSGVPDRFSGSKSGTSASLVITGLQAEDEADYYCQSYDSSLSGSVVFGGGTKLTVL
# Molecular target: NA of A/California/04/2009 (A/H1N1pdm09) (Influenza A virus A/California/04/2009 …, strain)
# Assay: ELISA
# Conditions: one partner purified
binder,measurement,value
B1,binding result,binds
